What was measured:
FcγRIa [1] = molecular target: T1, FcγRIa (human, UniProt P12314 16-292); test: SPR (Biacore), relative binding; control HoCon Ab GpH7-B3/GpL16-k0
T1 construct: extracellular domain; also called FcgRI; FcgRIa; not shown: His tag attached to the C terminus

FcγRIa [2] = molecular target: T1, FcγRIa; test: SPR (Biacore), relative binding; control HeCon Ab GpH7-A5/GpH7-B3/GpL16-k0

T1 sequence (P12314 16-292): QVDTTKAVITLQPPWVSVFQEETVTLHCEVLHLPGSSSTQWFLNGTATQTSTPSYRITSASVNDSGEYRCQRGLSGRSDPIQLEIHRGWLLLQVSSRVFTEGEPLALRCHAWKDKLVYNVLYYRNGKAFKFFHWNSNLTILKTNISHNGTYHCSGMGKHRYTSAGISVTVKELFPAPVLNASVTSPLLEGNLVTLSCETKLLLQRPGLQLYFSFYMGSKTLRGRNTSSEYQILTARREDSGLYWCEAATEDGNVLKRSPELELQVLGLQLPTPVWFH

Binder	Ho/Con_1a (FcγRIa [1])	He/Con_1a (FcγRIa [2])
GpH7-B3 variant Y296_03V/GpL16-k0 (antibody, human IgG1, kappa, Alteration in both H chains; also called Ho Ab Y296_03V) heavy: not shown light: DIVMTQSPLSLPVTPGEPASISCQASESLVHSNRNTYLHWYLQKPGQSPQLLIYKVSNRFSGVPDRFSGSGSGTDFTLKISRVEAEDVGVYYCSQNTHVPPTFGQGTKVEIERTVAAPSVFIFPPSDEQLKSGTASVVCLLNNFYPREAKVQWKVDNALQSGNSQESVTEQDSKDSTYSLSSTLTLSKADYEKHKVYACEVTHQGLSSPVTKSFNRGEC	104 % of control (=100)	–
GpH7-A5/GpH7-B3 variant K334_01G/GpL16-k0 (antibody, human IgG1, kappa, Alteration in one H chain only; also called He Ab K334_01G) heavy 1: not shown heavy 2: not shown light: DIVMTQSPLSLPVTPGEPASISCQASESLVHSNRNTYLHWYLQKPGQSPQLLIYKVSNRFSGVPDRFSGSGSGTDFTLKISRVEAEDVGVYYCSQNTHVPPTFGQGTKVEIERTVAAPSVFIFPPSDEQLKSGTASVVCLLNNFYPREAKVQWKVDNALQSGNSQESVTEQDSKDSTYSLSSTLTLSKADYEKHKVYACEVTHQGLSSPVTKSFNRGEC	–	104 % of control (=100)
GpH7-A5/GpH7-B3 variant K326_06M/GpL16-k0 (antibody, human IgG1, kappa, Alteration in one H chain only; also called He Ab K326_06M) heavy 1: not shown heavy 2: not shown light: DIVMTQSPLSLPVTPGEPASISCQASESLVHSNRNTYLHWYLQKPGQSPQLLIYKVSNRFSGVPDRFSGSGSGTDFTLKISRVEAEDVGVYYCSQNTHVPPTFGQGTKVEIERTVAAPSVFIFPPSDEQLKSGTASVVCLLNNFYPREAKVQWKVDNALQSGNSQESVTEQDSKDSTYSLSSTLTLSKADYEKHKVYACEVTHQGLSSPVTKSFNRGEC	–	102 % of control (=100)
GpH7-B3 variant Y300_16H/GpL16-k0 (antibody, human IgG1, kappa, Alteration in both H chains; also called Ho Ab Y300_16H) heavy: not shown light: DIVMTQSPLSLPVTPGEPASISCQASESLVHSNRNTYLHWYLQKPGQSPQLLIYKVSNRFSGVPDRFSGSGSGTDFTLKISRVEAEDVGVYYCSQNTHVPPTFGQGTKVEIERTVAAPSVFIFPPSDEQLKSGTASVVCLLNNFYPREAKVQWKVDNALQSGNSQESVTEQDSKDSTYSLSSTLTLSKADYEKHKVYACEVTHQGLSSPVTKSFNRGEC	111 % of control (=100)	–
GpH7-B3 variant Y296_07I/GpL16-k0 (antibody, human IgG1, kappa, Alteration in both H chains; also called Ho Ab Y296_07I) heavy: not shown light: DIVMTQSPLSLPVTPGEPASISCQASESLVHSNRNTYLHWYLQKPGQSPQLLIYKVSNRFSGVPDRFSGSGSGTDFTLKISRVEAEDVGVYYCSQNTHVPPTFGQGTKVEIERTVAAPSVFIFPPSDEQLKSGTASVVCLLNNFYPREAKVQWKVDNALQSGNSQESVTEQDSKDSTYSLSSTLTLSKADYEKHKVYACEVTHQGLSSPVTKSFNRGEC	106 % of control (=100)	–
GpH7-A5/GpH7-B3 variant K326_07I/GpL16-k0 (antibody, human IgG1, kappa, Alteration in one H chain only; also called He Ab K326_07I) heavy 1: not shown heavy 2: not shown light: DIVMTQSPLSLPVTPGEPASISCQASESLVHSNRNTYLHWYLQKPGQSPQLLIYKVSNRFSGVPDRFSGSGSGTDFTLKISRVEAEDVGVYYCSQNTHVPPTFGQGTKVEIERTVAAPSVFIFPPSDEQLKSGTASVVCLLNNFYPREAKVQWKVDNALQSGNSQESVTEQDSKDSTYSLSSTLTLSKADYEKHKVYACEVTHQGLSSPVTKSFNRGEC	–	101 % of control (=100)
GpH7-B3 variant Y300_07I/GpL16-k0 (antibody, human IgG1, kappa, Alteration in both H chains; also called Ho Ab Y300_07I) heavy: not shown light: DIVMTQSPLSLPVTPGEPASISCQASESLVHSNRNTYLHWYLQKPGQSPQLLIYKVSNRFSGVPDRFSGSGSGTDFTLKISRVEAEDVGVYYCSQNTHVPPTFGQGTKVEIERTVAAPSVFIFPPSDEQLKSGTASVVCLLNNFYPREAKVQWKVDNALQSGNSQESVTEQDSKDSTYSLSSTLTLSKADYEKHKVYACEVTHQGLSSPVTKSFNRGEC	109 % of control (=100)	–
GpH7-A5/GpH7-B3 variant K326_10E/GpL16-k0 (antibody, human IgG1, kappa, Alteration in one H chain only; also called He Ab K326_10E) heavy 1: not shown heavy 2: not shown light: DIVMTQSPLSLPVTPGEPASISCQASESLVHSNRNTYLHWYLQKPGQSPQLLIYKVSNRFSGVPDRFSGSGSGTDFTLKISRVEAEDVGVYYCSQNTHVPPTFGQGTKVEIERTVAAPSVFIFPPSDEQLKSGTASVVCLLNNFYPREAKVQWKVDNALQSGNSQESVTEQDSKDSTYSLSSTLTLSKADYEKHKVYACEVTHQGLSSPVTKSFNRGEC	–	104 % of control (=100)
GpH7-B3 variant Y296_08L/GpL16-k0 (antibody, human IgG1, kappa, Alteration in both H chains; also called Ho Ab Y296_08L) heavy: not shown light: DIVMTQSPLSLPVTPGEPASISCQASESLVHSNRNTYLHWYLQKPGQSPQLLIYKVSNRFSGVPDRFSGSGSGTDFTLKISRVEAEDVGVYYCSQNTHVPPTFGQGTKVEIERTVAAPSVFIFPPSDEQLKSGTASVVCLLNNFYPREAKVQWKVDNALQSGNSQESVTEQDSKDSTYSLSSTLTLSKADYEKHKVYACEVTHQGLSSPVTKSFNRGEC	105 % of control (=100)	–
GpH7-A5/GpH7-B3 variant K326_08L/GpL16-k0 (antibody, human IgG1, kappa, Alteration in one H chain only; also called He Ab K326_08L) heavy 1: not shown heavy 2: not shown light: DIVMTQSPLSLPVTPGEPASISCQASESLVHSNRNTYLHWYLQKPGQSPQLLIYKVSNRFSGVPDRFSGSGSGTDFTLKISRVEAEDVGVYYCSQNTHVPPTFGQGTKVEIERTVAAPSVFIFPPSDEQLKSGTASVVCLLNNFYPREAKVQWKVDNALQSGNSQESVTEQDSKDSTYSLSSTLTLSKADYEKHKVYACEVTHQGLSSPVTKSFNRGEC	–	100 % of control (=100)
GpH7-A5/GpH7-B3 variant K326_04F/GpL16-k0 (antibody, human IgG1, kappa, Alteration in one H chain only; also called He Ab K326_04F) heavy 1: not shown heavy 2: not shown light: DIVMTQSPLSLPVTPGEPASISCQASESLVHSNRNTYLHWYLQKPGQSPQLLIYKVSNRFSGVPDRFSGSGSGTDFTLKISRVEAEDVGVYYCSQNTHVPPTFGQGTKVEIERTVAAPSVFIFPPSDEQLKSGTASVVCLLNNFYPREAKVQWKVDNALQSGNSQESVTEQDSKDSTYSLSSTLTLSKADYEKHKVYACEVTHQGLSSPVTKSFNRGEC	–	102 % of control (=100)
GpH7-A5/GpH7-B3 variant K326_19Q/GpL16-k0 (antibody, human IgG1, kappa, Alteration in one H chain only; also called He Ab K326_19Q) heavy 1: not shown heavy 2: not shown light: DIVMTQSPLSLPVTPGEPASISCQASESLVHSNRNTYLHWYLQKPGQSPQLLIYKVSNRFSGVPDRFSGSGSGTDFTLKISRVEAEDVGVYYCSQNTHVPPTFGQGTKVEIERTVAAPSVFIFPPSDEQLKSGTASVVCLLNNFYPREAKVQWKVDNALQSGNSQESVTEQDSKDSTYSLSSTLTLSKADYEKHKVYACEVTHQGLSSPVTKSFNRGEC	–	102 % of control (=100)
GpH7-A5/GpH7-B3 variant K326_09D/GpL16-k0 (antibody, human IgG1, kappa, Alteration in one H chain only; also called He Ab K326_09D) heavy 1: not shown heavy 2: not shown light: DIVMTQSPLSLPVTPGEPASISCQASESLVHSNRNTYLHWYLQKPGQSPQLLIYKVSNRFSGVPDRFSGSGSGTDFTLKISRVEAEDVGVYYCSQNTHVPPTFGQGTKVEIERTVAAPSVFIFPPSDEQLKSGTASVVCLLNNFYPREAKVQWKVDNALQSGNSQESVTEQDSKDSTYSLSSTLTLSKADYEKHKVYACEVTHQGLSSPVTKSFNRGEC	–	103 % of control (=100)
GpH7-A5/GpH7-B3 variant K326_03V/GpL16-k0 (antibody, human IgG1, kappa, Alteration in one H chain only; also called He Ab K326_03V) heavy 1: not shown heavy 2: not shown light: DIVMTQSPLSLPVTPGEPASISCQASESLVHSNRNTYLHWYLQKPGQSPQLLIYKVSNRFSGVPDRFSGSGSGTDFTLKISRVEAEDVGVYYCSQNTHVPPTFGQGTKVEIERTVAAPSVFIFPPSDEQLKSGTASVVCLLNNFYPREAKVQWKVDNALQSGNSQESVTEQDSKDSTYSLSSTLTLSKADYEKHKVYACEVTHQGLSSPVTKSFNRGEC	–	102 % of control (=100)
GpH7-A5/GpH7-B3 variant I336_15Y/GpL16-k0 (antibody, human IgG1, kappa, Alteration in one H chain only; also called He Ab I336_15Y) heavy 1: not shown heavy 2: not shown light: DIVMTQSPLSLPVTPGEPASISCQASESLVHSNRNTYLHWYLQKPGQSPQLLIYKVSNRFSGVPDRFSGSGSGTDFTLKISRVEAEDVGVYYCSQNTHVPPTFGQGTKVEIERTVAAPSVFIFPPSDEQLKSGTASVVCLLNNFYPREAKVQWKVDNALQSGNSQESVTEQDSKDSTYSLSSTLTLSKADYEKHKVYACEVTHQGLSSPVTKSFNRGEC	–	103 % of control (=100)
GpH7-A5/GpH7-B3 variant I336_16H/GpL16-k0 (antibody, human IgG1, kappa, Alteration in one H chain only; also called He Ab I336_16H) heavy 1: not shown heavy 2: not shown light: DIVMTQSPLSLPVTPGEPASISCQASESLVHSNRNTYLHWYLQKPGQSPQLLIYKVSNRFSGVPDRFSGSGSGTDFTLKISRVEAEDVGVYYCSQNTHVPPTFGQGTKVEIERTVAAPSVFIFPPSDEQLKSGTASVVCLLNNFYPREAKVQWKVDNALQSGNSQESVTEQDSKDSTYSLSSTLTLSKADYEKHKVYACEVTHQGLSSPVTKSFNRGEC	–	101 % of control (=100)
